Test: soluble fraction after stress (log2 fold change); higher = more stays soluble; pooled small domains, quantitative proteomics
Conditions: stress: 75 degC
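Further: 20 min heating vs room temperature control held 20 min.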

Sequence	soluble fraction (log2)
HMESLNDRIKLVFKDSGLTQMDISKRLNIAQSSVSGIISGKANPSKRTLADIADRFDVNLEWLRDGTGPMK	0.474
HMESLSHRQKSIVDWVQKNGYASIERMAEQFEVSAQTIRRDVIELSERRILQRHHGGASLPAG	-0.211
HMESNDSNIEDDFYEGLKSMRKGDLKMSVVFFTRVIEKKPTFAEAWNRRATVYYMLGKFDKSMFDINETLK	-0.354
HMESPELIHILKEAEWQIWQQIQGLPEKQRIAMTLFAMDDLSYQEIADVMKVSVSAIESLLFRARTQLKKY	-0.546
HMESPLEQLTNRELQTLQMLGKGLSTKQIAAQLNLSVKTVETYRENLKRKLNLDSGSELIRYAIHRSNE	0.532
HMESPLNPTDVRRAAMDLLARREHGVEELRLKLKRRFGREEDFETIATEQLQRLVDEDLLSDTRF	-0.355
HMESRETGLPVVIISDGRILQDNLKRRGLDLSWLDKQLAEHGYPDFRDVFLLTVDEAGGVYFVPRE	0.438
HMESSNLESQLKKGIVPNLNGLSAKDALFLLENSGFNVKLYGMGSVKKQSLEAGKKYNKGDKITLIL	0.151
HMESSYKGFILDIETRQFSPTLIQRRGIAINPSGIVETTTEFSFATQEKVLIEDLKLIIDELDLRADY	-3.69
HMESTLNYSQFLSLVNEDRVAEVVIQGKELYVTDVNRSRFKVYAPPDPELIGLLRQKRVIISAKP	-0.56
HMESVDRIYERVRRYADDVGTAKIPMKELDDDGPLGTAVSRIRERRKRGELTEEWEARFETLPGWTWAA	0.045
HMESWEDSNIANEFKSTIKIAEKRLAEGGDHPELLEKLEALKQAIINENQTEASKLDDQVNDILFDMDD	0.602
HMETEAGIKAYLSSSMIKGIGPVTAQRIVERFGKRTLYVLDQMPEKLLDISGISEAKLEEILNGYRKS	-0.536
HMETFGEKDLDELIGRNVELITHDGKVREGLVDSVDRYNVSLVRYLDAGEVAMMVRRREVKAVRLK	-0.703
HMETFGLSQRELQILSQLHKGQPLKEFAASLFITESTLKTHLSAIYRKMSVKNRVQAIEKAKQSGL	-1.4
HMETGEDSLRRYFNSLPGSASKREILEDNPTVSQRTTERILQKLQAEGFIEKVGAARATRYRKVKQ	0.259
HMETGELQQILEDVFSKNIGIVQDKREAAFSILMGMIMAKSRGRADGALVSTLLKKKLTEFLATSDQVR	-0.0719
HMETGNEDYRVGKELAYDGNYKAATIYLMKSIKDDPNNPDAFNMLGFSHRKLGNNDEAYIYYNKALEL	-0.275
HMETKKEIIEAINELEEKYRNAIYLTSIEKLSYEETSKILGQSLSNTKNLIHRGKQQLRKILIKK	-0.772
HMETLEDHRKKTRQQLFDALSHLLQTSTFESLTMAKIAEEAGVGRTAVYNHFQDKEALLLAFITYETGQ	-1.74
HMETLETYTSRLRQLEDITNNFKGVDKSFAIQAGREIRVMVVPEQVSDADMILMARDISKAIEAELEYPGQ	0.0937
HMETLGADLRALRKSRGLTLLDMAESLGRSVGWLSQVERDLSDPSISDLREIAELLGVPISMLFRH	-2.83
HMETLKEMDSKGAINASEVNVREGAGTSSSKMYSLSKGASVDVTGIKGDWYRVHTSKGTGYVLAKYVTLVS	-0.29
HMETLYGQIVNDIMEKIESNAWPVGYVIPTESDFQKQYGVSRATVRNAILKLAHLGYLVRKKGSGTYVTRP	-1.25
HMETPEIPGLTPRQVEIMLLVGKGYSNKEIARFLTISPETVKTHLKEVFLRFGLRNRVEAIDFTRQNGL	-0.656
HMETPLSAADFKIVFGEEYEIGTDANGLPKMGSRINRQLQNRFLTWASVNKRKATMSAYQDWVASDPAAQ	-0.323

Sequence	soluble fraction (log2)
HMETQVKVPNVVGMTQSKAIAKLKESKLDYEVQEQKHDGDKGKVVDQSEAEGTYVDRGTKVIIYVSTGE	-0.437
HMETSIQFIRLEIGHNHPWVNQTLKEIPTIPGTLIAAVLRGDEDQAIIPKGDTLLKEGDSVIIGAKEYQD	-1.42
HMETSLVIQIDGAVNSPGIYQVTPGTRIFEALELAGGVREDAQTEALNLALPVYDGQRISIPSSFA	-0.153
HMETTVSYSGVVTASVLRIRKGPSVSSSVAGTLKKGTGVSIIFEDNGWGKLADGSGWVSLTYIKKNSTP	-2.33
HMETWDQAYETIKQNILNLTYPPGMPLTEAKLAEELGMSRSPVRTALRMLQTDGLIVTDYYKSMTVKEI	-1.95
HMETWKLYKRAYKKYYARYMKGNMSEADFKAWATQAAADRDAAIEQITPEIDAALKAQIIEQLREKLNR	-1.11
HMEVAAAENYRSKLSSFAKDTISVWQTELLLGTISDDDKASLTEWMAYIKALQVVDTSDPESITWPTEPT	-1.14
HMEVAASEQRDNLWALARRVLSGEQYDVLYLRYVEDFSVAQIADVVGKTQTHVKVLLFRGRNNLGSRLRS	0.0441
HMEVENAQLLARLTPQEHRVFERVVAGLSNREIGSEMDISIKTVEVHRARVMRKLEANSVAELVRFHIHN	-2.37
HMEVGDTYLGKVTRVSSFGAFIEVLPGKEGLMRQNDAGEGGMPEVGDEVMVRVMEVDHLGRINLSGKLDD	-0.102
HMEVGKRIAEIRKENRMSQEQFGQLFHVTRQTVSNWENAKSYPDLQTLVKISELFEITMDELLK	-1.45
HMEVKVSGHLEAIGGVYHMKLSWIDDAGKRRRKSKSTGLAERGNKKRANDMLIDFMREQEAEIAASGD	-2.05
HMEVLSKRGSTGTEVINIQKKLKNWGYYTGSVDGIYGKLTEEAVRYFQRTNGLTVDGIAGKNTLAAMGIA	-0.619
HMEVNLEPLIALLRKHRDLDLSGYSKSTLGRRITYFMGLNKISSIDELGRRLAEDDLLFQEFLDKLT	-0.264
HMEVSLEDKMDYLTNYATTHKNFSFRNLLESSSGKIEVIVTFLAILELMKMGRINISQEHIFDDIIIESRI	-2.68
HMEVSTRQVRAALRDIIEAEDKKRPLSDEAITARLREQGLPVARRTVAKYREQMGILAARLRK	-0.662
HMEVVRVEPGATVRDLGEALGVPPTRIIQILMGLGEMKTVTQTLSTEEIELVAEELGRRVEV	-0.108
HMEWVVVPDVRRQLLPEAQRRVNKARLRLEVAGGWPAEPLLAMVVDQKPGPETRVPLNSIVVVVVRNLP	-0.981
HMEYELYALKEEVLKRLTREDRELLILLFEERRTIHAVAQRLGLSDSAVYKRRTQLVNKVKVIASMLM	-2.22
HMEYKNYYDSPVGRLELLSDGVSLTAVLFENQQGDGTREENTSLAIFKEATQWLDAYFKGDNPEITIPL	0.0228
HMEYKTGIINTNKVRVRNAADADATVIFAINKDIKVKILAEENGFYKIGVSVKNRGNGEDLIGFVKKELIT	-1.81
HMEYQTVEKSEAEQIIQELEKAERLALKVYSKNDIITGISVSDGKSYYFSAELVPMLKNIIENPEIKIL	-0.795
HMEYRVRDKMTDILELLTEHRGRIALRDAFPTGTREELLAAFLALLELTKMQTVIVYQDRLYDDIQIVMK	-0.354
HMEYSTLEIYSQTKKDLIEKSPHLNKVVYDKDDGYIYLLSFEKEDDLTSFKSNIENDSDIKRIEANV	0.121
HMEYTVNRLAQISGVSKRTLRYYDEIGLLRPERVNPNGYRIYGQMQVDLLQQILFYRELGLPLEEIREII	-0.502
HMFAATGVVNAPSGLVLRETASKGGNPLATVPDKAQVEIVEEDGEWYKVKVNEQTGYLFAEFVNKTE	-0.0895

Sequence	soluble fraction (log2)
HMFAQDQLFKKDNSKVDVKILEINTTEIKYKLFTYQDGPTITVAKKDVALIIYQNGVHEVIT	-2.53
HMFAVPAPEVDDILSEKKVDVLLLGPQVRYLLEQFTEKLKDKNIPIGVIPMVDYGMMNGSKVLALAEELIG	0.131
HMFDFGNHLRMLREKHGISQEELGRRVGRAGSVISNYENNIKIPTLDVLTTMARIYDVSLDYLVG	-1.59
HMFDFNNLSSLSDVELSVYRFVVNNPEKVAYMRVRDIAQKTHVANSSVMRFVHKIGFASFPEFKAYLKNIN	-0.997
HMFDITKEVLKQSGLYNLYKNDESLEGINRIQNIEELLNGIKDFVENNEKSQASVSSFLQDVALATDQ	0.258
HMFDKVSVNNLAEAIGRLDGIYQDVLRLYYVHELPSKEIGKILNINHLTVNTRLKRAREKLFKMLKEE	-3.11
HMFDNPLSERDKEILNHISMGKSNKEIANQVGLAEQTIKNTISVILDKTFTSNRAQAASMATKNKW	0.666
HMFDPTDLPEKQLMVYEIIKSNNGINMTNIASLLGFNKTTVDNAIRALKKKEIVVFKGTNRSGGYFNT	-1.91
HMFEDEYLETMYAFYETDPQALVRTGDLASSLKVSPASATEMVQRLASKGFVDYIPYKGASLTELGLAM	0.0785
HMFEDYLRMKGLSIVSFSKQTGIPISTLRNLNKIRYDKWKIRYLEELSNVLNKTIQEIIEELKNMG	-3.5
HMFEFFKGIYSISLLKKDGIFFVTFKDENKEAVKHIFPEKPTALELGIKVMEMFEYKERYDGII	-0.455
HMFEPLTDREREVLQALADGLSDKEIAERLYISPATVRTHITAILGKLDANSRLQAVVVAARHNLVTL	-0.478
HMFERISELLTDEELAVYKRGRNANASSVPKHADIADYRRATGVEALFGYLYIKGEIDRINQLFELA	-0.154
HMFESQYIGKIATAITDISAFSGRLKIYDENWEARTLGEDAPEIKKGAKVKIVRHDDLTMFVEKK	-0.397
HMFETLVLALAQAWPAERGPVEALQFEGGRLSLQRSGFADEQVEALRQRLSSEGWTLQTEQGRLILNKAG	-1.17
HMFFDSDTDIQNALNAENSIKKYQLFRTQTLYNSAQSDIDFVNQPEVKAKLFDALENLKNKLGFLAEPT	-0.0329
HMFGIEIPEEAGKLQDYTLTDDDLEGGNTLKEIQFPQGARVVIIRRDDKFIIPDGSVELQSGDQLLIIYGE	-1.59
HMFGSKDVKRAIEDYAAAMSSQPRALSAPQRKVLIRHLATSGLLQLRGAAKIVADELGISRASVYNALKV	-1.53
HMFHDPTMEETLINLKGITNEVLSLLSSSKIKKLEDLAEMSVPELRDIVENISDEEASALIMEARKPWF	-0.22
HMFHGEGVQANNIQAYIVLKMAAVNGAEDALDTADEVSEKMSREDLETATQVLGQIFRKYLMELQSA	-1.22
HMFIKVEVPDLTGMTLTEVRKALEEKNLKMGDIRPAGQTSLVAKVINQSPQAKMVVDEYSEVSIQFEE	-0.985
HMFIMQTVALGSEGPDVRALQSILNRIGYNAGTVDGIFGSRTRQAVIAFQRNNGLAADGVAGPATWG	0.188
HMFINITAITGNNYNTPDAARNALPNTYNKKIGLVFTYRDLTNRYRVYLYNSETSNYIPLDSYM	-3.5
HMFIPGDSVRVHVKVVEGSNERIQMFEGVVIARQGSGVRENFTVRRISYGVGIERTFPVHSPRL	-0.226

Reference: the domain aggregation screens of Martell et al. (2025)
